Reference: doi:10.1101/2023.02.02.526371

Target: T1, PIF3-GST (Arabidopsis thaliana, UniProt O80536 1-524)
T1 sequence: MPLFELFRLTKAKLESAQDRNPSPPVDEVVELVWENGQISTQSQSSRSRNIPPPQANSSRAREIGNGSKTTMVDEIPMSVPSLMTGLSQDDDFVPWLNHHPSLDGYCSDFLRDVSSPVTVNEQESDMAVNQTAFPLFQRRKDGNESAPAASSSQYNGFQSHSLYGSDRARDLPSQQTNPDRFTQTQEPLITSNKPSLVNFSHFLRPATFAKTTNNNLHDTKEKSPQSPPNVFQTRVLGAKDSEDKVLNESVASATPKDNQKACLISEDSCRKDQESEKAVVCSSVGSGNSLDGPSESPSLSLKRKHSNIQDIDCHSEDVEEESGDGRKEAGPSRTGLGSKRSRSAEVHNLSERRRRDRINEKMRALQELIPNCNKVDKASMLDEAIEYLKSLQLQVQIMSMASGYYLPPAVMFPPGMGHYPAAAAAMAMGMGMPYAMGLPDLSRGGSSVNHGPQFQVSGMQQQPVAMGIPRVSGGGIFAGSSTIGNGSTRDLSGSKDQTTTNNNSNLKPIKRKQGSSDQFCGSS
Assay: EMSA

B1: PIEZO promoter probe 1 (dsDNA)
DNA 1: CCTAGAACTAAACACATGAGCCTCCTTCTT
DNA 2: AAGAAGGAGGCTCATGTGTTTAGTTCTAGG
B1: binds.

B2: PIEZO promoter probe 2 (dsDNA)
DNA 1: ATCCAAATGGACCACATGCCCATCAACCTCCAT
DNA 2: ATGGAGGTTGATGGGCATGTGGTCCATTTGGAT
B2: binds.
